Test results as given in paper PMC10397247.

Legend:
P6SC2 = target: T1, P6SC2; test: two-hybrid library CC1; settings: mean of both orientations;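 also: natural log of median RNA to DNA barcode read ratio; higher means stronger binding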
T1 chain: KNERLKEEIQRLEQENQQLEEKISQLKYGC

P6 = target: T2, P6; test: two-hybrid library CC1; settings: mean of both orientations;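 also: natural log of median RNA to DNA barcode read ratio; higher means stronger binding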
T2 chain: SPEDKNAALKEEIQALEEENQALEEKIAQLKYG

P7mS = target: T3, P7mS; test: two-hybrid library CC1; settings: mean of both orientations;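 also: natural log of median RNA to DNA barcode read ratio; higher means stronger binding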
T3 chain: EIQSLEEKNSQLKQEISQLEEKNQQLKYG

P5SC2 = target: T4, P5SC2; test: two-hybrid library CC1;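 also: natural log of median RNA to DNA barcode read ratio; higher means stronger binding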
T4 chain: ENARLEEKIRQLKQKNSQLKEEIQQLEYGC

P6mS = target: T5, P6mS; test: two-hybrid library CC1; settings: mean of both orientations;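 also: natural log of median RNA to DNA barcode read ratio; higher means stronger binding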
T5 chain: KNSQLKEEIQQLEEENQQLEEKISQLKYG

P8 = target: T6, P8; test: two-hybrid library CC1; settings: mean of both orientations;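 also: natural log of median RNA to DNA barcode read ratio; higher means stronger binding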
T6 chain: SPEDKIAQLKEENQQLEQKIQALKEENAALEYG

P5mS = target: T7, P5mS; test: two-hybrid library CC1; settings: mean of both orientations
T7 chain: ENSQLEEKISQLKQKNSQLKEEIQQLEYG

P7 = target: T8, P7; test: two-hybrid library CC1; settings: mean of both orientations
T8 chain: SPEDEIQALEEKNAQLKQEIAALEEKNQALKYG

P8mS = target: T9, P8mS; test: two-hybrid library CC1; settings: mean of both orientations
T9 chain: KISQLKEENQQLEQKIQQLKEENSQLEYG

P6SC1 = target: T10, P6SC1; test: two-hybrid library CC1; settings: mean of both orientations
T10 chain: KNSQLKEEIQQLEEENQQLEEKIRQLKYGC

P9 = target: T11, P9; test: two-hybrid library CC1; settings: mean of both orientations
T11 chain: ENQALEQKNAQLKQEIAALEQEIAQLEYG

4H3705-AA = target: T12, 4H3705-AA; test: two-hybrid library CCmax; settings: mean of both orientations
T12 chain: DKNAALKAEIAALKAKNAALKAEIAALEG

4H58-AA = target: T13, 4H58-AA; test: two-hybrid library CCmax; settings: mean of both orientations
T13 chain: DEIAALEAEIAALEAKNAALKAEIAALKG

4H_APH = target: T14, 4H_APH; test: two-hybrid library CCmax; settings: mean of both orientations
T14 chain: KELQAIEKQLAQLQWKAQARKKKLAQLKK

4H3782-AA = target: T15, 4H3782-AA; test: two-hybrid library CCmax; settings: mean of both orientations
T15 chain: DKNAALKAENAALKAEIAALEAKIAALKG

4H3651-AA = target: T16, 4H3651-AA; test: two-hybrid library CCmax; settings: mean of both orientations
T16 chain: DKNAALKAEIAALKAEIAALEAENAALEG

4H355-AA = target: T17, 4H355-AA; test: two-hybrid library CCmax; settings: mean of both orientations
T17 chain: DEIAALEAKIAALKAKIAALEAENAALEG

GCN2_T = test: two-hybrid library CCmax
4H465-AA = target: T18, 4H465-AA; test: two-hybrid library CCmax; settings: mean of both orientations
T18 chain: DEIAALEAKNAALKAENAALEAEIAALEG

4H486-AA = target: T19, 4H486-AA; test: two-hybrid library CCmax; settings: mean of both orientations
T19 chain: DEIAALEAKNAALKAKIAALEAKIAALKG

4H_GCN4 = test: two-hybrid library CCmax; settings: mean of both orientations
Sequence of 4H_GCN4 (chain, as listed by the source): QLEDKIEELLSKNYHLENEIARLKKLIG

4H895-AA = target: T20, 4H895-AA; test: two-hybrid library CCmax; settings: mean of both orientations
T20 chain: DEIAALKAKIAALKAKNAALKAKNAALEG

4H3365-AA = target: T21, 4H3365-AA; test: two-hybrid library CCmax; settings: mean of both orientations
T21 chain: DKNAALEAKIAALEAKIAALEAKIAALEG

4H3020-AA = target: T22, 4H3020-AA; test: two-hybrid library CCmax
T22 chain: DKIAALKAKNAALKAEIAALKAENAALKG

4H_BCR = target: T23, 4H_BCR; test: two-hybrid library CCmax; settings: mean of both orientations
T23 chain: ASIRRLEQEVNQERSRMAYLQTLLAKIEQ

4H535-AA = target: T24, 4H535-AA; test: two-hybrid library CCmax; settings: mean of both orientations
T24 chain: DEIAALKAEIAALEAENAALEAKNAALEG

4H3134-AA = target: T25, 4H3134-AA; test: two-hybrid library CCmax; settings: mean of both orientations
T25 chain: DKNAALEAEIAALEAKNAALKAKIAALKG

4H390-AA = target: T26, 4H390-AA; test: two-hybrid library CCmax; settings: mean of both orientations
T26 chain: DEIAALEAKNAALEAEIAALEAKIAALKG

4H3625-AA = target: T27, 4H3625-AA; test: two-hybrid library CCmax; settings: mean of both orientations
T27 chain: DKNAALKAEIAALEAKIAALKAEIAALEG

4H2873-AA = target: T28, 4H2873-AA; test: two-hybrid library CCmax; settings: mean of both orientations
T28 chain: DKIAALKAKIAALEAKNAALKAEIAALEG

4H2687-AA = target: T29, 4H2687-AA; test: two-hybrid library CCmax
T29 chain: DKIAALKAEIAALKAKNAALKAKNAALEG

4H2985-AA = target: T30, 4H2985-AA; test: two-hybrid library CCmax; settings: mean of both orientations
T30 chain: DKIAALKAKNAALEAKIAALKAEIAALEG

4H2705-AA = target: T31, 4H2705-AA; test: two-hybrid library CCmax; settings: mean of both orientations
T31 chain: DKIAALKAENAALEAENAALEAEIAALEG

4H816-AA = target: T32, 4H816-AA; test: two-hybrid library CCmax; settings: mean of both orientations
T32 chain: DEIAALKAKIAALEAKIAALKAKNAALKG

4H510-AA = target: T33, 4H510-AA; test: two-hybrid library CCmax; settings: mean of both orientations
T33 chain: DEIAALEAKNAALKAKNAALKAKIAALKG

4H3940-AA = target: T34, 4H3940-AA; test: two-hybrid library CCmax; settings: mean of both orientations
T34 chain: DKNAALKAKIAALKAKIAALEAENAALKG

4H3409-AA = target: T35, 4H3409-AA; test: two-hybrid library CCmax; settings: mean of both orientations
T35 chain: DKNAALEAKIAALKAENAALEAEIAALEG

4H2758-AA = target: T36, 4H2758-AA; test: two-hybrid library CCmax; settings: mean of both orientations
T36 chain: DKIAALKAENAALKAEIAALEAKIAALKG

4H775-AA = target: T37, 4H775-AA; test: two-hybrid library CCmax; settings: mean of both orientations
T37 chain: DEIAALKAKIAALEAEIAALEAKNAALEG

4H278-AA = target: T38, 4H278-AA; test: two-hybrid library CCmax; settings: mean of both orientations
T38 chain: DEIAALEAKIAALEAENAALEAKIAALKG

4H87-AA = target: T39, 4H87-AA; test: two-hybrid library CCmax; settings: mean of both orientations
T39 chain: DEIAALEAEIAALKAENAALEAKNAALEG

4H2717-bN = target: T40, 4H2717-bN; test: two-hybrid library CCNG1
T40 chain: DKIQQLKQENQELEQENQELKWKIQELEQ

4H492-bN = target: T41, 4H492-bN; test: two-hybrid library CCNG1
T41 chain: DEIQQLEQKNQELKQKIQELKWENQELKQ

4H2839-bN = target: T42, 4H2839-bN; test: two-hybrid library CCNG1
T42 chain: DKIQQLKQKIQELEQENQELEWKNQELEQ

4H2692-bN = target: T43, 4H2692-bN; test: two-hybrid library CCNG1
T43 chain: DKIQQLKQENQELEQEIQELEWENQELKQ

4H3057-bN = target: T44, 4H3057-bN; test: two-hybrid library CCNG1
T44 chain: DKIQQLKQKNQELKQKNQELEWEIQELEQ

4H2915-bN = target: T45, 4H2915-bN; test: two-hybrid library CCNG1
T45 chain: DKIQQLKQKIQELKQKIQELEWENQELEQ

4H348-bN = target: T46, 4H348-bN; test: two-hybrid library CCNG1
T46 chain: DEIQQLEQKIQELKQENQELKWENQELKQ

4H741-bN = target: T47, 4H741-bN; test: two-hybrid library CCNG1
T47 chain: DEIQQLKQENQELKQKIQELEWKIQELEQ

4H918-bH = target: T48, 4H918-bH; test: two-hybrid library CCNG1
T48 chain: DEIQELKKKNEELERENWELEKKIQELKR

4H3277-bN = target: T49, 4H3277-bN; test: two-hybrid library CCNG1
T49 chain: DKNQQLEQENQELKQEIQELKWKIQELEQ

4H477-bN = target: T50, 4H477-bN; test: two-hybrid library CCNG1
T50 chain: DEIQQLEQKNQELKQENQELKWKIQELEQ

4H40-bN = target: T51, 4H40-bN; test: two-hybrid library CCNG1
T51 chain: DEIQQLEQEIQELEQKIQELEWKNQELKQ

4H319-bN = target: T52, 4H319-bN; test: two-hybrid library CCNG1
T52 chain: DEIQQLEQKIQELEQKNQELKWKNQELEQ

P9bH1 = target: T53, P9bH1; test: two-hybrid library CCNG1
T53 chain: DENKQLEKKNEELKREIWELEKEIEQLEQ

P8bH1 = target: T54, P8bH1; test: two-hybrid library CCNG1
T54 chain: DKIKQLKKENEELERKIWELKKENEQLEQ

P7bH1 = target: T55, P7bH1; test: two-hybrid library CCNG1
T55 chain: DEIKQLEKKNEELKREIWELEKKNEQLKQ

P6bH1 = target: T56, P6bH1; test: two-hybrid library CCNG1
T56 chain: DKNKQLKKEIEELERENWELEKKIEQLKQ

B1: P5SC2 (peptide)
chain: ENARLEEKIRQLKQKNSQLKEEIQQLEYGC
B1 gave an interaction score (P6SC2) of 0.408, an interaction score (P6) of 0.225 and an interaction score (P7mS) of -2.77. The interaction score (P5SC2) was -2.86, the interaction score (P6mS) was 0.24 and the interaction score (P8) was -1.1. It also gave an interaction score (P5mS) of -2.94, an interaction score (P7) of -2.39 and an interaction score (P8mS) of -2.45. For the same binder, the interaction score (P6SC1) was 0.316 and the interaction score (P9) was -2.39.

B2: 4H3020-AA (peptide)
chain: DKIAALKAKNAALKAEIAALKAENAALKG
Work on B2 yielded an interaction score (4H3705-AA) of -1.78, an interaction score (4H58-AA) of -0.528 and an interaction score (4H_APH) of -2.43. For the same binder, the interaction score (4H3782-AA) was -1.57, the interaction score (4H3651-AA) was -1.36 and the interaction score (4H355-AA) was -1.86. For the same binder, the interaction score (GCN2_T) was -0.848, the interaction score (4H465-AA) was -1.7 and the interaction score (4H486-AA) was -1.33. The interaction score (4H_GCN4) was -0.937, the interaction score (4H895-AA) was -1.5 and the interaction score (4H3365-AA) was -1.49. For the same binder, the interaction score (4H3020-AA) was 0.962, the interaction score (4H_BCR) was -1.87 and the interaction score (4H535-AA) was -1.47.

B3: 4H2687-AA (peptide)
chain: DKIAALKAEIAALKAKNAALKAKNAALEG
Binder B3 has an interaction score (4H3134-AA) of -1.43, an interaction score (4H390-AA) of -1.43 and an interaction score (4H3625-AA) of -0.539. For the same binder, the interaction score (4H2873-AA) was -1.74, the interaction score (4H2687-AA) was -0.386 and the interaction score (4H2985-AA) was -1.59. The interaction score (4H2705-AA) was -1.7, the interaction score (4H816-AA) was -1.46 and the interaction score (4H510-AA) was -1.76. The interaction score (4H3940-AA) was -1.7, the interaction score (4H3409-AA) was -0.818 and the interaction score (4H2758-AA) was -1.78. It also gave an interaction score (4H775-AA) of -0.777, an interaction score (4H278-AA) of 1.88 and an interaction score (4H87-AA) of 1.53.

B4: 4H2692-bN (peptide)
chain: DKIQQLKQENQELEQEIQELEWENQELKQ
Binder B4 has an interaction score (4H2717-bN) of -0.423, an interaction score (4H492-bN) of 1.22 and an interaction score (4H2839-bN) of -0.832. It also gave an interaction score (4H2692-bN) of 0.234, an interaction score (4H3057-bN) of 0.294 and an interaction score (4H2915-bN) of -0.419. It also gave an interaction score (4H348-bN) of 0.502, an interaction score (4H741-bN) of -0.795 and an interaction score (4H918-bH) of 1.17. It also gave an interaction score (4H3277-bN) of -0.49, an interaction score (4H477-bN) of -0.405 and an interaction score (4H40-bN) of -0.333. The interaction score (4H319-bN) was -0.482.

B5: P6bH1 (peptide)
chain: DKNKQLKKEIEELERENWELEKKIEQLKQ
For B5, the interaction score (P9bH1) was 0.0468, the interaction score (P8bH1) was 0.525 and the interaction score (P7bH1) was 1.39. The interaction score (P6bH1) was -0.419.
